One test addresses Ran G19V (UniProt P62826 1-216). Description: co-expression and co-immunoprecipitation. An excerpt:
(§1) To address more directly the relative binding in vivo of Nercc to Ran-GDP compared to Ran-GTP, the cytoplasmic wild type Nercc and a nuclear form of full length Nercc (NLS-Nercc) were each co-expressed with wild type Ran or Ran mutants that bind GDP (T24N) or GTP (G19V) exclusively; either Ran or Nercc was immunoprecipitated and probed for the association with the other polypeptide. The full-length wild type Nercc bound co-expressed wild type Ran and Ran T24N to a greater extent than RanG19V.

Another test concerns the target Ran T24N (UniProt P62826 1-216). Description: co-expression and co-immunoprecipitation.
Description: as §1

Test [1] deals with T1, HA Nercc (full-length Nercc1 with HA epitope tag) (human, UniProt Q8TD19 1-979).
T1 construct: also called HA Nercc FL
T1 sequence: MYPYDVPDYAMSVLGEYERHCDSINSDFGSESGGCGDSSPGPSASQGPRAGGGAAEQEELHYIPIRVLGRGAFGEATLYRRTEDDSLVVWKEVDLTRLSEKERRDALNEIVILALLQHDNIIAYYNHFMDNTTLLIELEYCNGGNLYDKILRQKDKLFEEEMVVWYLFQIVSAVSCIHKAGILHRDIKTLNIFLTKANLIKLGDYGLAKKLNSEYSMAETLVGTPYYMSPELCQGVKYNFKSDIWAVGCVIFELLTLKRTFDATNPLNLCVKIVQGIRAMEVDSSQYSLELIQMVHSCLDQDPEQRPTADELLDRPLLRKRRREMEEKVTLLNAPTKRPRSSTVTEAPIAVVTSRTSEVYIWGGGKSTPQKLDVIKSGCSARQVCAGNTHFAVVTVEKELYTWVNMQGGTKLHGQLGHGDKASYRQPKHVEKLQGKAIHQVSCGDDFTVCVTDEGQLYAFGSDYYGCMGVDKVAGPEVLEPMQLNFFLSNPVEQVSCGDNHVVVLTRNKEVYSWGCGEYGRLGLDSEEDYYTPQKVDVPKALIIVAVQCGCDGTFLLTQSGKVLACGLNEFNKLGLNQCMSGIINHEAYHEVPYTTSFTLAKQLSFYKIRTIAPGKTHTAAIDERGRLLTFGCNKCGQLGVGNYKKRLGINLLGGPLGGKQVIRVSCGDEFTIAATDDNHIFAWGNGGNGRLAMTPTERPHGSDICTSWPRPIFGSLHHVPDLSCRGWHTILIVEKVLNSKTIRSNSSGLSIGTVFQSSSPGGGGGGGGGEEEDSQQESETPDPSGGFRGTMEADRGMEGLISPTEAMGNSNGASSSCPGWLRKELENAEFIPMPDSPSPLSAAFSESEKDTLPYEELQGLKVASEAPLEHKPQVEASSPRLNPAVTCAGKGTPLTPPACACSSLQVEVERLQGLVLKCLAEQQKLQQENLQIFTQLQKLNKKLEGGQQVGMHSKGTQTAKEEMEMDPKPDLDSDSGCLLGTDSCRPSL
Briefly: anti-HA immunoprecipitation from co-transfected HEK293 cells, anti-FLAG blot.

Data on five molecules can be found in US20060052582A1 (published 2006).

B1: Nercc (338-739) fused to the Nercc NLS (other)
chain: PIAVVTSRTSEVYIWGGGKSTPQKLDVIKSGCSARQVCAGNTHFAVVTVEKELYTWVNMQGGTKLHGQLGHGDKASYRQPKHVEKLQGKAIHQVSCGDDFTVCVTDEGQLYAFGSDYYGCMGVDKVAGPEVLEPMQLNFFLSNPVEQVSCGDNHVVVLTRNKEVYSWGCGEYGRLGLDSEEDYYTPQKVDVPKALIIVAVQCGCDGTFLLTQSGKVLACGLNEFNKLGLNQCMSGIINHEAYHEVPYTTSFTLAKQLSFYKIRTIAPGKTHTAAIDERGRLLTFGCNKCGQLGVGNYKKRLGINLLGGPLGGKQVIRVSCGDEFTIAATDDNHIFAWGNGGNGRLAMTPTERPHGSDICTSWPRPIFGSLHHVPDLSCRGWHTILIVEKVLNSKTIRSNSSG
notes: also called Nercc RCC1 domain directed to the nucleus; not shown: Nercc NLS
Turning to B1, the binding result with Ran G19V and with Ran T24N was “no binding” throughout.

B2: NLS Nercc FL (nuclear form of full length Nercc with an NLS peptide at the N-terminus) (enzyme)
chain: MSVLGEYERHCDSINSDFGSESGGCGDSSPGPSASQGPRAGGGAAEQEELHYIPIRVLGRGAFGEATLYRRTEDDSLVVWKEVDLTRLSEKERRDALNEIVILALLQHDNIIAYYNHFMDNTTLLIELEYCNGGNLYDKILRQKDKLFEEEMVVWYLFQIVSAVSCIHKAGILHRDIKTLNIFLTKANLIKLGDYGLAKKLNSEYSMAETLVGTPYYMSPELCQGVKYNFKSDIWAVGCVIFELLTLKRTFDATNPLNLCVKIVQGIRAMEVDSSQYSLELIQMVHSCLDQDPEQRPTADELLDRPLLRKRRREMEEKVTLLNAPTKRPRSSTVTEAPIAVVTSRTSEVYIWGGGKSTPQKLDVIKSGCSARQVCAGNTHFAVVTVEKELYTWVNMQGGTKLHGQLGHGDKASYRQPKHVEKLQGKAIHQVSCGDDFTVCVTDEGQLYAFGSDYYGCMGVDKVAGPEVLEPMQLNFFLSNPVEQVSCGDNHVVVLTRNKEVYSWGCGEYGRLGLDSEEDYYTPQKVDVPKALIIVAVQCGCDGTFLLTQSGKVLACGLNEFNKLGLNQCMSGIINHEAYHEVPYTTSFTLAKQLSFYKIRTIAPGKTHTAAIDERGRLLTFGCNKCGQLGVGNYKKRLGINLLGGPLGGKQVIRVSCGDEFTIAATDDNHIFAWGNGGNGRLAMTPTERPHGSDICTSWPRPIFGSLHHVPDLSCRGWHTILIVEKVLNSKTIRSNSSGLSIGTVFQSSSPGGGGGGGGGEEEDSQQESETPDPSGGFRGTMEADRGMEGLISPTEAMGNSNGASSSCPGWLRKELENAEFIPMPDSPSPLSAAFSESEKDTLPYEELQGLKVASEAPLEHKPQVEASSPRLNPAVTCAGKGTPLTPPACACSSLQVEVERLQGLVLKCLAEQQKLQQENLQIFTQLQKLNKKLEGGQQVGMHSKGTQTAKEEMEMDPKPDLDSDSGCLLGTDSCRPSL
notes: Probably FLAG-tagged like the other constructs; not shown: NLS peptide (a copy of the Nercc NLS)
In the case of B2, in the test with Ran G19V, the binding result is on record as “no binding”.

B3: FLAG Nercc (338-739) (other)
chain: MDYKDDDDKPIAVVTSRTSEVYIWGGGKSTPQKLDVIKSGCSARQVCAGNTHFAVVTVEKELYTWVNMQGGTKLHGQLGHGDKASYRQPKHVEKLQGKAIHQVSCGDDFTVCVTDEGQLYAFGSDYYGCMGVDKVAGPEVLEPMQLNFFLSNPVEQVSCGDNHVVVLTRNKEVYSWGCGEYGRLGLDSEEDYYTPQKVDVPKALIIVAVQCGCDGTFLLTQSGKVLACGLNEFNKLGLNQCMSGIINHEAYHEVPYTTSFTLAKQLSFYKIRTIAPGKTHTAAIDERGRLLTFGCNKCGQLGVGNYKKRLGINLLGGPLGGKQVIRVSCGDEFTIAATDDNHIFAWGNGGNGRLAMTPTERPHGSDICTSWPRPIFGSLHHVPDLSCRGWHTILIVEKVLNSKTIRSNSSG
notes: also called Nercc RCC1 domain; Nercc RCC1-like domain
On to B3, for which the binding result in the test with Ran G19V and with Ran T24N was “no binding” throughout.

B4: FLAG Nercc (full-length wild type Nercc1 kinase with FLAG epitope tag) (enzyme)
chain: MDYKDDDDKMSVLGEYERHCDSINSDFGSESGGCGDSSPGPSASQGPRAGGGAAEQEELHYIPIRVLGRGAFGEATLYRRTEDDSLVVWKEVDLTRLSEKERRDALNEIVILALLQHDNIIAYYNHFMDNTTLLIELEYCNGGNLYDKILRQKDKLFEEEMVVWYLFQIVSAVSCIHKAGILHRDIKTLNIFLTKANLIKLGDYGLAKKLNSEYSMAETLVGTPYYMSPELCQGVKYNFKSDIWAVGCVIFELLTLKRTFDATNPLNLCVKIVQGIRAMEVDSSQYSLELIQMVHSCLDQDPEQRPTADELLDRPLLRKRRREMEEKVTLLNAPTKRPRSSTVTEAPIAVVTSRTSEVYIWGGGKSTPQKLDVIKSGCSARQVCAGNTHFAVVTVEKELYTWVNMQGGTKLHGQLGHGDKASYRQPKHVEKLQGKAIHQVSCGDDFTVCVTDEGQLYAFGSDYYGCMGVDKVAGPEVLEPMQLNFFLSNPVEQVSCGDNHVVVLTRNKEVYSWGCGEYGRLGLDSEEDYYTPQKVDVPKALIIVAVQCGCDGTFLLTQSGKVLACGLNEFNKLGLNQCMSGIINHEAYHEVPYTTSFTLAKQLSFYKIRTIAPGKTHTAAIDERGRLLTFGCNKCGQLGVGNYKKRLGINLLGGPLGGKQVIRVSCGDEFTIAATDDNHIFAWGNGGNGRLAMTPTERPHGSDICTSWPRPIFGSLHHVPDLSCRGWHTILIVEKVLNSKTIRSNSSGLSIGTVFQSSSPGGGGGGGGGEEEDSQQESETPDPSGGFRGTMEADRGMEGLISPTEAMGNSNGASSSCPGWLRKELENAEFIPMPDSPSPLSAAFSESEKDTLPYEELQGLKVASEAPLEHKPQVEASSPRLNPAVTCAGKGTPLTPPACACSSLQVEVERLQGLVLKCLAEQQKLQQENLQIFTQLQKLNKKLEGGQQVGMHSKGTQTAKEEMEMDPKPDLDSDSGCLLGTDSCRPSL
notes: Expressed in HEK293 cells; also called FLAG Nercc1; FLAG Nercc full length (FL)
For B4, the binding result in test [1] is “binds”.

B5: FLAG Nercc (1-891) (enzyme)
chain: MDYKDDDDKMSVLGEYERHCDSINSDFGSESGGCGDSSPGPSASQGPRAGGGAAEQEELHYIPIRVLGRGAFGEATLYRRTEDDSLVVWKEVDLTRLSEKERRDALNEIVILALLQHDNIIAYYNHFMDNTTLLIELEYCNGGNLYDKILRQKDKLFEEEMVVWYLFQIVSAVSCIHKAGILHRDIKTLNIFLTKANLIKLGDYGLAKKLNSEYSMAETLVGTPYYMSPELCQGVKYNFKSDIWAVGCVIFELLTLKRTFDATNPLNLCVKIVQGIRAMEVDSSQYSLELIQMVHSCLDQDPEQRPTADELLDRPLLRKRRREMEEKVTLLNAPTKRPRSSTVTEAPIAVVTSRTSEVYIWGGGKSTPQKLDVIKSGCSARQVCAGNTHFAVVTVEKELYTWVNMQGGTKLHGQLGHGDKASYRQPKHVEKLQGKAIHQVSCGDDFTVCVTDEGQLYAFGSDYYGCMGVDKVAGPEVLEPMQLNFFLSNPVEQVSCGDNHVVVLTRNKEVYSWGCGEYGRLGLDSEEDYYTPQKVDVPKALIIVAVQCGCDGTFLLTQSGKVLACGLNEFNKLGLNQCMSGIINHEAYHEVPYTTSFTLAKQLSFYKIRTIAPGKTHTAAIDERGRLLTFGCNKCGQLGVGNYKKRLGINLLGGPLGGKQVIRVSCGDEFTIAATDDNHIFAWGNGGNGRLAMTPTERPHGSDICTSWPRPIFGSLHHVPDLSCRGWHTILIVEKVLNSKTIRSNSSGLSIGTVFQSSSPGGGGGGGGGEEEDSQQESETPDPSGGFRGTMEADRGMEGLISPTEAMGNSNGASSSCPGWLRKELENAEFIPMPDSPSPLSAAFSESEKDTLPYEELQGLKVASEAPLEHKPQVEASSPRLNPAVTCAGKGTPLTPPACA
Take B5: the binding result in test [1] was “no binding”.
